Data reported in patent publication US20190321478A1 (IMMATICS BIOTECHNOLOGIES, published 2019).

B1: TCR R59P2E7 (TCR, V domains shown)
V domain 1: KQEVTQIPAALSVPEGENLVLNCSFTDSAIYNLQWFRQDPGKGLTSLLLIQSSQREQTSGRLNASLDKSSGRSTLYIAASQPGDSATYLCAVNSDYKLSFGAGTTVTVRA
V domain 2: AAGVIQSPRHLIKEKRETATLKCYPIPRHDTVYWYQQGPGQDPQFLISFYEKMQSDKGSIPDRFSAQQFSDYHSELNMSSLELGDSALYFCASSLGLGTGDYGYTFGSGTRLTVVE
B2: TCR R42P3A9 (TCR, V domains shown)
V domain 1: GIQVEQSPPDLILQEGANSTLRCNFSDSVNNLQWFHQNPWGQLINLFYIPSGTKQNGRLSATTVATERYSLLYISSSQTTDSGVYFCAVHNFNKFYFGSGTKLNVKP
V domain 2: AAGVIQSPRHLIKEKRETATLKCYPIPRHDTVYWYQQGPGQDPQFLISFYEKMQSDKGSIPDRFSAQQFSDYHSELNMSSLELGDSALYFCASSLLGQGYNEQFFGPGTRLTVLE
B3: TCR R37P1H1 (TCR, V domains shown)
V domain 1: AQTVTQSQPEMSVQEAETVTLSCTYDTSESNYYLFWYKQPPSRQMILVIRQEAYKQQNATENRFSVNFQKAAKSFSLKISDSQLGDTAMYFCAFGYSGGGADGLTFGKGTHLIIQP
V domain 2: DAGVTQSPTHLIKTRGQQVTLRCSPKSGHDTVSWYQQALGQGPQFIFQYYEEEERQRGNFPDRFSGHQFPNYSSELNVNALLLGDSALYLCASSNEGQGWEAEAFFGQGTRLTVVE
B4: TCR R26P1A9 (TCR, V domains shown)
V domain 1: SQQGEEDPQALSIQEGENATMNCSYKTSINNLQWYRQNSGRGLVHLILIRSNEREKHSGRLRVTLDTSKKSSSLLITASRAADTASYFCLIGASGSRLTFGEGTQLTVNP
V domain 2: DAGVIQSPRHEVTEMGQEVTLRCKPISGHDYLFWYRQTMMRGLELLIYFNNNVPIDDSGMPEDRFSAKMPNASFSTLKIQPSEPRDSAVYFCASSYFGWNEKLFFGSGTQLSVLE
B5: TCR R26P2A6 (TCR, V domains shown)
V domain 1: QKEVEQDPGPLSVPEGAIVSLNCTYSNSAFQYFMWYRQYSRKGPELLMYTYSSGNKEDGRFTAQVDKSSKYISLFIRDSQPSDSATYLCAMSDVSGGYNKLIFGAGTRLAVHP
V domain 2: EAQVTQNPRYLITVTGKKLTVTCSQNMNHEYMSWYRQDPGLGLRQIYYSMNVEVTDKGDVPEGYKVSRKEKRNFPLILESPSPNQTSLYFCASTTPDGTDEQFFGPGTRLTVLE

Each binder was assayed against HLA-A*02-presented MAGEA1-003 (on target cells) (human) (assay: cell-based or functional assay).

Going from B1 to B2, the “EC50 of IFNγ release, T2 cells loaded with titrated MAGEA1-003 peptide” value (“EC50 of IFNγ release, T2 cells loaded” below) rises from 386 nM to 823 nM (2.1-fold).

First: B3
Second: B4
The “EC50 of IFNγ release, T2 cells loaded” value of the first is 4.3-fold higher: 26 nM for the first, 6 nM for the second.

In the case of B5, the “EC50 of IFNγ release, T2 cells loaded” value is reported as 100 nM.
